Earlier results, collected in paper PMC8620506.

Molecular target: NS4B (Dengue virus) (UniProt P27909)

## NS4A (from UniProt P27909)
  Kd: 50 nM
